Target: the molecule itself
Test: X-ray crystal structure, homotetramer
Description: Molecular replacement was carried out using the program MOLREP from the CCCP4i-program suite with the coordinates of bovine AQP1 (PDB entry 1J4N) (SEQ ID NO: 38) as the model. Using two copies of the model in the molecular replacement search, a clear solution with a correlation coefficient and R-factor of 34.3% and 53.1% respectively was found. The crystal packing was checked using the program O (30) and there were no overlaps between molecules. Automated model building was carried out using ARP/WARP (31) and the resulting model was docked to the correct sequence using GUISIDE2. The calculated electron density map at this stage was already of very good quality. Water molecules were picked using ARP/WARP. The model was subjected to multiple rounds of refinement in REFMAC5 (29), NCSREF (29) and CNS (32) with manual rebuilding in O between each round. During refinement, NCS restraints between the two molecules in the asymmetric unit (molecule A and B) were used. […] The R-factor and Rfree are 18.1% and 20.8% respectively. The quality of the structure was checked in PROCHECK (33).

B1: SoPIP2;1, plasma membrane aquaporin of spinach (other)
chain: MSKEVSEEAQAHQHGKDYVDPPPAPFFDLGELKLWSFWRAAIAEFIATLLFLYITVATVIGHSKETVVCGSVGLLGIAWAFGGMIFVLVYCTAGISGGHINPAVTFGLFLARKVSLLRALVYMIAQCLGAICGVGLVKAFMKGPYNQFGGGANSVALGYNKGTALGAEIIGTFVLVYTVFSATDPKRSARDSHVPILAPLPIGFAVFMVHLATIPITGTGINPARSFGAAVIFNSNKVWDDQWIFWVGPFIGAAVAAAYHQYVLRAAAIKALGSFRSNPTN
notes: also called PM28A; spinach aquaporin
Question: Does B1 bind?
Answer: Result: binds
